From patent US20160075781A1 (IMMUNOGEN, published 2016)

What was measured:
human folate receptor 1 [1] = biological target: T1, human folate receptor 1 (human, UniProt P15328 25-234); experiment: flow cytometry on FOLR1-expressing SKOV3 cells; apparent Kd from the fit of MFI against antibody concentration
T1 construct: also called FOLR1; Folate Receptor-alpha
Description: Binding affinities of anti-FOLR1 antibodies and of their SPDB-DM4, PEG4Mal-DM4, SMCC-DM1, or anti-FOLR1-sulfo-SPDB-DM4 conjugates were assayed by Flow Cytometry. FOLR1-expressing SKOV3 cells were incubated with varying concentrations of anti-FOLR1 antibodies or their conjugates and processed as described above for flow cytometry analysis. Data analysis was performed using CellQuest Pro (BD Biosciences, San Diego, US) and for each sample the mean fluorescence intensity for FL1 (MFI) was exported and plotted against the antibody concentration in a semi-log plot. A dose-response curve was generated by non-linear regression and the value for the apparent equilibrium dissociation constant (Kd) of the test-samples for the binding to SKOV3 cells was calculated using GraphPad Prism v4 (GraphPad software, San Diego, Calif.) and presented in FIG. 5.

human folate receptor 1 [2] = biological target: T1, human folate receptor 1; experiment: cell-based or functional assay
human folate receptor 1 [3] = biological target: T1, human folate receptor 1; experiment: apparent affinity, flow cytometry on FOLR1-expressing cells ('as described above'; cell line not named in Example 19, SKOV3 in Example 13)

T1 sequence (P15328 25-234 limits assumed): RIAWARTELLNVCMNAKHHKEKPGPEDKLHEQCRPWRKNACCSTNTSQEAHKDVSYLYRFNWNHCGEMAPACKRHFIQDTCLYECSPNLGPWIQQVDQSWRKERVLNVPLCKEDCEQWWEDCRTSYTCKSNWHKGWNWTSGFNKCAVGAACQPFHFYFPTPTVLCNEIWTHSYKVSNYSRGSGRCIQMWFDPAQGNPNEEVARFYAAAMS

| Kd (human folate receptor 1 [1]) [nM] | Kd (human folate receptor 1 [3]) [nM] | Binder | IC50, cytotoxic activity of the PEG4-mal-DM4 conjugate on KB cells, continuous exposure (WST-8 survival) (human folate receptor 1 [2]) [nM] |
| --- | --- | --- | --- |
| 0.66 |  | muFR1-13 (antibody, V domains shown) VH: QVQLKESGPDLVAPSQSLSITCTVSGFSLSRYSVHWIRQPPGKGLEWLGMIWSGGNTDYNSVFKSRLNITKDNSKSQVFLKMNSLQTDDTAIYYCATFDGKVSWFAYWGQGTLVTVSA VL: SIVMTQTPKFLLVSTGDRFTITCKASQSVSNDVLWYQQKPGQSPKLLIYYAYNRYSGVPDRFTGSGYGTDFTFTITTVQSEDLAVYFCQQDHSSPFTFGSGTKLEIKR |  |
|  |  | muFR1-21 PEG4-mal-DM4 conjugate (antibody, mouse IgG2b, kappa, V domains shown, DM4 linked through PEG4-mal; sites not given) VH: EVKLVESGGDLVKPGGSLKLSCAASGFTFSSYGMSWVRQTPDKRLECVATISSGGSYTYYPDGVKGRFTISRDNAKNTLYLQMSSLKSEDTAMYYCARDGEGGLYAMDYWGQGTSVTVSS VL: DIQMTQSSSYLSVSLGGRVTITCKASDHINNWLAWYQQKPGNAPRLLISGATSLETGVPSRFSGSGSGKDYTLSISSLQTEDVATYYCQQYWSTPFTFGSGTKLEIKR | 0.1 |
| 0.07 |  | huFR1-21 (antibody, human IgG1, kappa, V domains shown, unconjugated humanized FR1-21; also called humanized FR1-21) VH: EVQLVESGGDVVKPGGSLKLSCAASGFTFSSYGMSWVRQTPGKGLECVATISSGGSYTYYSPGFQGRFTISRDKSKNTLYLQMSSLKAEDTAMYYCARDGEGGLYAMDYWGQGTSVTVSS VL: DIQMTQSSSSLSVSVGGRVTITCKASDHINNWLAWYQQKPGKAPKLLISGATSLETGVPSRFSGSGSGKDYTLSISSLQPEDVATYYCQQYWSTPFTFGQGTKLEIKR |  |
|  |  | huFR1-21-PEG4-mal-DM4 (antibody, human IgG1, kappa, V domains shown, maytansinoid DM4 attached through the PEG4-mal linker; residues and chain not stated) VH: EVQLVESGGDVVKPGGSLKLSCAASGFTFSSYGMSWVRQTPGKGLECVATISSGGSYTYYSPGFQGRFTISRDKSKNTLYLQMSSLKAEDTAMYYCARDGEGGLYAMDYWGQGTSVTVSS VL: DIQMTQSSSSLSVSVGGRVTITCKASDHINNWLAWYQQKPGKAPKLLISGATSLETGVPSRFSGSGSGKDYTLSISSLQPEDVATYYCQQYWSTPFTFGQGTKLEIKR | 0.1 |
| 0.07 |  | muFR1-21 (antibody, mouse IgG2b, kappa, V domains shown, murine anti-FOLR1 antibody; also called murine FR1-21) VH: EVKLVESGGDLVKPGGSLKLSCAASGFTFSSYGMSWVRQTPDKRLECVATISSGGSYTYYPDGVKGRFTISRDNAKNTLYLQMSSLKSEDTAMYYCARDGEGGLYAMDYWGQGTSVTVSS VL: DIQMTQSSSYLSVSLGGRVTITCKASDHINNWLAWYQQKPGNAPRLLISGATSLETGVPSRFSGSGSGKDYTLSISSLQTEDVATYYCQQYWSTPFTFGSGTKLEIKR |  |
|  | 0.13 | huFR1-48 (antibody, human IgG1, kappa, V domains shown) VH: QVQLVQSGAEVAKPGASVKLSCKASGYTFTNYWMQWIKQRPGQGLEWIGAIYPGNGDSRYTQKFQGKATLTADKSSSTAYMQVSSLTSEDSAVYYCARRDGNYAAYWGQGTLVTVSA VL: DIQMTQSPSSLSVSVGERVTITCRASENIYSNLAWYQQKPGKSPKLLVYAATNLADGVPSRFSGSESGTDYSLKINSLQPEDFGSYYCQHFWASPYTFGQGTKLEIKR |  |
|  | 0.08 | huFR1-49 (antibody, human IgG1, kappa, V domains shown) VH: QVQLQQSGAVVAKPGASVKMSCKASGYTFTNYWMYWIKQRPGQGLELIGAIYPGNSDTTYNQKFQGKATLTAVTSANTVYMEVSSLTSEDSAVYYCTKRHDYGAMDYWGQGTSVTVSS VL: DIQMTQSPSSLSVSVGERVTITCRASENIYTNLAWYQQKPGKSPKLLVYTASNLADGVPSRFSGSGSGTDYSLKINSLQPEDFGTYYCQHFWVSPYTFGQGTKLEIKR |  |
|  | 0.15 | huFR1-65 (antibody, human IgG1, kappa, V domains shown) VH: QVQLVQSGAEVAKPGASVKMSCKASGYTFTSYTMHWVKQRPGQGLAWIGYINPISGYTNYNQKFQGKATLTADKSSSTAYMQLNSLTSEDSAVYYCASGGAYGRKPMDYWGQGTSVTVSS VL: EIVMTQSPATMSTSPGDRVSVTCKASQNVGPNVAWYQQKPGQSPRALIYSASYRYSGVPARFTGSGSGTDFTLTISNMQSEDLAEYFCQQYNSYPYTFGQGTKLEIKR |  |
| 0.13 |  | muFR1-9 (antibody, V domains shown) VH: QVQLVESGGGLVQPGGSRKLSCAASGFTFSSFGMHWVRQAPEKGLEWVAYISSGSSTFYYADTVKGRFTISRDNPKNTLFLQMTSLRSEDTAMYYCAKELTGTFAYWGQGTLVTVSA VL: DIVLTQSPATLSVTPGDSVSLSCRASQSINNNLHWYQQKSHESPRLLIKYASQSISGIPSRFSGSGSGTDFTLSINSVETEDFGMYFCQQSNSWPQVTFGAGTKLELKR |  |
|  | 0.14 | huFR1-57 (antibody, human IgG1, kappa, V domains shown) VH: EVQLVESGGGLVQPGGSRRLSCAASGFTFSSFGMHWVRQAPGKGLEWVAYISSGSSTISYADSVKGRFTISRDNSKKTLLLQMTSLRAEDTAMYYCAREAYGSSMEYWGQGTLVTVSS VL: EIVLTQSPATLSVTPGDRVSLSCRASQNINNNLHWYQQKPGQSPRLLIKYVSQSVSGIPDRFSGSGSGTDFTLSISSVEPEDFGMYFCQQSNSWPHYTFGQGTKLEIKR |  |
|  |  | huMov19-PEG4-mal-DM4 (antibody, V domains shown, maytansinoid DM4 attached through the PEG4-mal linker; residues and chain not stated) VH: QVQLVQSGAEVVKPGASVKISCKASGYTFTGYFMNWVKQSPGQSLEWIGRIHPYDGDTFYNQKFQGKATLTVDKSSNTAHMELLSLTSEDFAVYYCTRYDGSRAMDYWGQGTTVTVSS VL: DIVLTQSPLSLAVSLGQPAIISCKASQSVSFAGTSLMHWYHQKPGQQPRLLIYRASNLEAGVPDRFSGSGSKTDFTLNISPVEAEDAATYYCQQSREYPYTFGGGTKLEIKR | 0.15 |
| 0.07 | 0.06 | huMov19 (antibody, V domains shown, Resurfaced humanized Mov19, full IgG1/kappa; also called humanized Mov19) VH: QVQLVQSGAEVVKPGASVKISCKASGYTFTGYFMNWVKQSPGQSLEWIGRIHPYDGDTFYNQKFQGKATLTVDKSSNTAHMELLSLTSEDFAVYYCTRYDGSRAMDYWGQGTTVTVSS VL: DIVLTQSPLSLAVSLGQPAIISCKASQSVSFAGTSLMHWYHQKPGQQPRLLIYRASNLEAGVPDRFSGSGSKTDFTLNISPVEAEDAATYYCQQSREYPYTFGGGTKLEIKR |  |
